Source: US20140170142A1 (AstraZeneca / MedImmune, published 2014)

T1: mouse FcRn (mouse, UniProt Q61559 22-297; P01887 21-119, limits assumed)
T1 construct: also called mFcRn
T1 sequence (looked up): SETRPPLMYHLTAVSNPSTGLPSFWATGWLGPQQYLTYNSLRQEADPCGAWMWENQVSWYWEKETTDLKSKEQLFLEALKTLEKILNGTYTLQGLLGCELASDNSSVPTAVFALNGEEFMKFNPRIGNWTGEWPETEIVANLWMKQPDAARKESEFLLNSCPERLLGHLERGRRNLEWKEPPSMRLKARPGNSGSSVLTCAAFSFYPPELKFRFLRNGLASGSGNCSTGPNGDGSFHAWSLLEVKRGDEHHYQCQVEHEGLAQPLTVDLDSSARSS
T1 sequence (b2m, looked up): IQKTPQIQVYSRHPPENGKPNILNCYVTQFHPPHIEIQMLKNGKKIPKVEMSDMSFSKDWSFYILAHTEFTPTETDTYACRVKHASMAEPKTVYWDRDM


Assays:
mouse serum albumin [1] = biological target: T2, mouse serum albumin (mouse, UniProt P07724 25-608); experiment: SPR (BIAcore 3000), CM5 chip, PBS pH 7.5
T2 construct: also called MSA; mouse albumin
Source text: (§1) The interaction between different ABD-Fc variants and MSA (mouse serum albumin), HSA (human serum albumin) and mFcRn were monitored by surface plasmon resonance detection using BIAcore 3000 instrument. (GE Healthcare). First, ABD-Fc variants were coupled to dextran matrix of CM5 sensor chip using an Amine Coupling Kit at a surface density of 1000-2000 RU according to manufacturer's instructions. Human and mouse albumin as well mouse FcRn were flown over in a test-bind experiments at the concentrations ranging from 0.1-10 μM at a flow rate of 5 μl/min. Dilution and binding experiments were carried out in PBS pH7.5; 150 mM NaCl; 0.005% Tween for albumin binding and 50 mM NaPhosphate pH6.0; 150 mM NaCl; 0.005% Tween for mouse FcRn. Subsequently, the format of the Biacore experiments were flipped where mouse and human albumin as well as mouse FcRn were coupled to a CM5 chip using Amine Coupling Kit at surface densities ranging from 500-1500 RU. The ABD-Fc variants were flown over at three different concentrations 0.5; 1 and 10 μM. The latter format was more successful due to higher signal and self-consistency.

human serum albumin [2] = biological target: T3, human serum albumin (human, UniProt P02768 25-609); experiment: SPR (BIAcore 3000), CM5 chip, PBS pH 7.5
T3 construct: also called HSA; human albumin
Source text: as §1

mouse FcRn = biological target: T1, mouse FcRn; experiment: SPR (BIAcore 3000), CM5 chip, pH 6.0, three concentrations of injectant
Source text: as §1

human serum albumin [3] = biological target: T3, human serum albumin; experiment: SPR (BIAcore 3000), CM5 chip, three concentrations of injectant
Source text: as §1

mouse serum albumin [4] = biological target: T2, mouse serum albumin; experiment: as above
Source text: as §1

T3 sequence (P02768 25-609 limits assumed): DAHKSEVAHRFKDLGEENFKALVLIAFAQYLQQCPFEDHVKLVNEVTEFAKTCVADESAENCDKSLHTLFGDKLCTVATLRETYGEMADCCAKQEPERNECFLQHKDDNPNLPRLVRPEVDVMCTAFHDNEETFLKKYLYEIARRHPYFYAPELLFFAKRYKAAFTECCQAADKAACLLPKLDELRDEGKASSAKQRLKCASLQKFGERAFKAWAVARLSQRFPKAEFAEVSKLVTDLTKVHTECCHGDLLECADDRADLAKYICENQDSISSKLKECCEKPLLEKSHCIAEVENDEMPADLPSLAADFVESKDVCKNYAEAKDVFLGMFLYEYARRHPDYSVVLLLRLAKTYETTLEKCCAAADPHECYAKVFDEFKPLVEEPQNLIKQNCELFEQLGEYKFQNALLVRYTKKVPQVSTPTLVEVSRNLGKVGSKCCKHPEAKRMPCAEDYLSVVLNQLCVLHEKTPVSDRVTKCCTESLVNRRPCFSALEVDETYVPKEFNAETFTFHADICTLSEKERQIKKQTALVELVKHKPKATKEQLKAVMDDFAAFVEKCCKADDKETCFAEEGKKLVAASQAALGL

| Binder | binding result (mouse serum albumin [1]) | binding result (human serum albumin [2]) | binding result (mouse FcRn) | binding result (human serum albumin [3]) | binding result (mouse serum albumin [4]) |
| --- | --- | --- | --- | --- | --- |
| ABD-Fc: fusion of unmodified ABD and unmodified Fc (Fc fusion, also called wild type ABD-Fc; ABD-Fc parental construct) LAEAKVLANRELDKYGVSDYYKNLINNAKTVEGVKALIDEILAALPGAEPRGPTIKPCPPCKCPAPNLLGGPSVFIFPPKIKDVLMISLSPIVTCVVVDVSEDDPDVQISWFVNNVEVHTAQTQTHREDYNSTLRVVSALPIQHQDWMSGKEFKCKVNNKDLPAPIERTISKPKGSVRAPQVYVLPPPEEEMTKKQVTLTCMVTDFMPEDIYVEWTNNGKTELNYKNTEPVLDSDGSYFMYSKLRVEKKNWVERNSYSCSVVHEGLHNHHTTKSFSRTPGKGGGGSEQKLISEEDLGGGGSHHHHHH | binds |  |  |  |  |
| ABD-Fc (His 310): knockout substitution in Fc region of Igg2A H310A (Fc fusion, also called ABD-(His310TM)-Fc) LAEAKVLANRELDKYGVSDYYKNLINNAKTVEGVKALIDEILAALPGAEPRGPTIKPCPPCKCPAPNLLGGPSVFIFPPKIKDVLMISLSPIVTCVVVDVSEDDPDVQISWFVNNVEVHTAQTQTHREDYNSTLRVVSALPIQAQDWMSGKEFKCKVNNKDLPAPIERTISKPKGSVRAPQVYVLPPPEEEMTKKQVTLTCMVTDFMPEDIYVEWTNNGKTELNYKNTEPVLDSDGSYFMYSKLRVEKKNWVERNSYSCSVVHEGLHNHHTTKSFSRTPGKGGGGSEQKLISEEDLGGGGSHHHHHH | binds | binds | no binding (tested: 10 µM) |  |  |
| ABD-TM-Fc: triple knockout mutations of ABD residues S18A; T20A and Y21A (Fc fusion, T20A/Y20A; Y21A)) LAEAKVLANRELDKYGVADAYANLINNAKTVEGVKALIDEILAALPGAEPRGPTIKPCPPCKCPAPNLLGGPSVFIFPPKIKDVLMISLSPIVTCVVVDVSEDDPDVQISWFVNNVEVHTAQTQTHREDYNSTLRVVSALPIQHQDWMSGKEFKCKVNNKDLPAPIERTISKPKGSVRAPQVYVLPPPEEEMTKKQVTLTCMVTDFMPEDIYVEWTNNGKTELNYKNTEPVLDSDGSYFMYSKLRVEKKNWVERNSYSCSVVHEGLHNHHTTKSFSRTPGKGGGGSEQKLISEEDLGGGGSHHHHHH |  |  |  | no binding (tested: 10 µM) | no binding (tested: 10 µM) |
